# Assay results reported in paper PMC11293645, “The two-component system TtrRS boosts Vibrio parahaemolyticus colonization by exploiting sulfur compounds in host gut” (PLOS Pathogens, 2024).
# Target: T1, TtrR (09830, response regulator) (UniProt Q87N66)
# T1 sequence: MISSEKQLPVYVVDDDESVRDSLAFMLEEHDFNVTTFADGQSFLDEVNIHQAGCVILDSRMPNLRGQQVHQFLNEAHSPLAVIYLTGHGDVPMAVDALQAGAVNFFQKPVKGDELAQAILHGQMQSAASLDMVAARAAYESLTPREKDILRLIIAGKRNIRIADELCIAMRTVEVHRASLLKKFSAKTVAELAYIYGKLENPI
# Experiment: EMSA
# Details: not given
row,Molecule,binding
1,CGCCCTGAGCTAAAGATGCAAAGACAACCAAGCACAGAATCCAAAACTGAAGCAACCGTGGCGTTTTGTTCATGATGAGTCGAATCGTTCCTTCGAAAATAATGAAGCAAGAATAACAGCTACCTTCCGTAAACCACATTTGTTTTAGATCAACTTTGATCTGGGTATGTGGAAATCCACTATATCGACGTCGCAGCGCATTTCTCACAATGGAATCAGTCAGTTCAAATTCAACTAACAGCAGGTGAGTT (double strand) [PttrB (ttrBCA promoter)],binds
2,GCTGACTCACTTTAATTGTTATTAATATCTCCAAGTGTCTACTGTGATAGTGACTTGGGTGCTGTATTGTCGGCTTTGTCAATAACTAAAGGTATTATATTTAGAGGATGTGAAGAGCTGCTAAATGGCAGCTCTTCAGGTTTGGTTGTCTACTAAGCTTTGCGGATTTTGGCTGGTAATGATTGGCGAGCAGCGGCTCCTACCACCCAATCTAACAACACGCCTTTCCCTTCTCGG (double strand) [PtsdB-Δbox],no binding
3,CAATACCTGCAATGGGGACCAACGCGGCACCCGCTGTAATGGCGCTAAGAAAGCGACGTTTGGTGGAATCCATAACTCACCTGCTGTTAGTTGAATTTGAACTGACTGATTCCATTGTGAGAAATGCGCTGCGACGTCGATATAGTGGATTTCCACATACCCAGATCAAAGTTGATCTAAAACAAATGTGGTTTACGGAAGGTAGCTGTTATTCTTGCTTCATTATTTTCGAAGGAACGATTCGACTCATC (double strand) [PttrS (ttrRS promoter)],binds
4,"GCTGACTCACTTTAATTGTTATTAATATCTCCAAGTGTCTACTGTGATAGTGACTTGGGTGCTGTATTGTCGGCTTTGTCAATAACTAAAGGTATTGTGGATTTCCACATATTTAGAGGATGTGAAGAGCTGCTAAATGGCAGCTCTTCAGGTTTGGTTGTCTACTAAGCTTTGCGGATTTTGGCTGGTAATGATTGGCGAGCAGCGGCTCCTACCACCCAATCTAACAACACGCCTTTCCCTTCTCGG (double strand) [P09855 (PtsdB, tsdBA promoter)]",binds
5,CGCCCTGAGCTAAAGATGCAAAGACAACCAAGCACAGAATCCAAAACTGAAGCAACCGTGGCGTTTTGTTCATGATGAGTCGAATCGTTCCTTCGAAAATAATGAAGCAAGAATAACAGCTACCTTCCGTAAACCACATTTGTTTTAGATCAACTTTGATCTGGGTATTATATCGACGTCGCAGCGCATTTCTCACAATGGAATCAGTCAGTTCAAATTCAACTAACAGCAGGTGAGTT (double strand) [PttrB-Δbox],no binding

# Target: T2, TtrBCA (Vibrio parahaemolyticus, UniProt Q87N61)
# T2 construct: gene VP2014; native complex in V. parahaemolyticus cells; wild type, ttrA deletion and pBAD24-complemented strains; with Tetrathionate reductase subunit B; Tetrathionate reductase subunit C
# T2 sequence (Q87N62 entry or part of it): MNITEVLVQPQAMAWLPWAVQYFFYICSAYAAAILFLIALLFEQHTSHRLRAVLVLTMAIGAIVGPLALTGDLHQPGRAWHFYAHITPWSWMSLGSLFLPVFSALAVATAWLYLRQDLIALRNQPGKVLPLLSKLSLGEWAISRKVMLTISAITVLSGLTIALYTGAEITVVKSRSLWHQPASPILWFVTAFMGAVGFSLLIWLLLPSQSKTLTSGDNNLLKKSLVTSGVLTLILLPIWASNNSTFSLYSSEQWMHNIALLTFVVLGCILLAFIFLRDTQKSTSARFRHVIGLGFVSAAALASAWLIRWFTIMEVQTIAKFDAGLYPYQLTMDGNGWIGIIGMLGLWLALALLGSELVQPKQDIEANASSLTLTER
# T2 sequence (Q87N63 entry or part of it, further chain): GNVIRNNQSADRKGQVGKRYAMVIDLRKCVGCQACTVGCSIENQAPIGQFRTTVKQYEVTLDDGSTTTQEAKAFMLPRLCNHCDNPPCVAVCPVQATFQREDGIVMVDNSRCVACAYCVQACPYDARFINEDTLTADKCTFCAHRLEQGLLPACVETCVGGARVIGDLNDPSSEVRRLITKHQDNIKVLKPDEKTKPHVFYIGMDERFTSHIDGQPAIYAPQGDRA
# T2 sequence (Q87N61 entry or part of it): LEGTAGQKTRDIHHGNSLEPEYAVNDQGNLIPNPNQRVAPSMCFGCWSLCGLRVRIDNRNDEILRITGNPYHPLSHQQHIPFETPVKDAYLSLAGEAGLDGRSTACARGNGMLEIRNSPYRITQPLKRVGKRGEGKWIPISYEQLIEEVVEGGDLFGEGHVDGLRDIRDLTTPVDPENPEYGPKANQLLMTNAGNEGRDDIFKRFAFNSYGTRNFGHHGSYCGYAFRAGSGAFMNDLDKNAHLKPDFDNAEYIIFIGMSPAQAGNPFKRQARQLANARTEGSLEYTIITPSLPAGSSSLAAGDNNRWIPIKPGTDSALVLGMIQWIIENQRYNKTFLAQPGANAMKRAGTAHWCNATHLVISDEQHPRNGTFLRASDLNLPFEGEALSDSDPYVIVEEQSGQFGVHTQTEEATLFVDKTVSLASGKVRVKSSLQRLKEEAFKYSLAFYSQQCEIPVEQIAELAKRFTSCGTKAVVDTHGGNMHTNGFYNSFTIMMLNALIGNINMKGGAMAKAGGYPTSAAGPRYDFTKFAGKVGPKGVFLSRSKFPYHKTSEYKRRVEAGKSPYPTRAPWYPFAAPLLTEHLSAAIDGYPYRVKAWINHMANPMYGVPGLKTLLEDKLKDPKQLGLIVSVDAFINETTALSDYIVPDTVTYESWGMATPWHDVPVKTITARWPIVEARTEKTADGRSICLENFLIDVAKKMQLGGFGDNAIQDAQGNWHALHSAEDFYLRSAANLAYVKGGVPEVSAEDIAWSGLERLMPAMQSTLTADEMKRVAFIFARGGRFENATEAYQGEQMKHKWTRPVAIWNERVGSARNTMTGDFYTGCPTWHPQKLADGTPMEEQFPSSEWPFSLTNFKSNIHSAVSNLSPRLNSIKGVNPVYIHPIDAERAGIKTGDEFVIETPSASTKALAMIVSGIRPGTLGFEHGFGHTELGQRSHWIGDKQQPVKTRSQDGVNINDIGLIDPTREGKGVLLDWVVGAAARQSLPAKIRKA
# Experiment: HPLC of cultures, wild type vs deletion and complemented strains
# Assay type: cell-based
# Details: M9 medium, 10 mM sodium tetrathionate, micro-aerobic, 37 °C; whole-cell cultures; reduction to thiosulfate
row,Molecule,"HPLC of cultures, wild type vs deletion and complemented strains"
1,O=S(=O)(O)SSS(=O)(=O)O [tetrathionate],confirming that ttrBCA is essential for tetrathionate reduction
